# Target: CD68 protein (human) (UniProt P34810)
# Test: flow cytometry on lupus patient PBMC, B cells (FIG. 3B)
# UniProt P34810, sequence (P34810 22-354): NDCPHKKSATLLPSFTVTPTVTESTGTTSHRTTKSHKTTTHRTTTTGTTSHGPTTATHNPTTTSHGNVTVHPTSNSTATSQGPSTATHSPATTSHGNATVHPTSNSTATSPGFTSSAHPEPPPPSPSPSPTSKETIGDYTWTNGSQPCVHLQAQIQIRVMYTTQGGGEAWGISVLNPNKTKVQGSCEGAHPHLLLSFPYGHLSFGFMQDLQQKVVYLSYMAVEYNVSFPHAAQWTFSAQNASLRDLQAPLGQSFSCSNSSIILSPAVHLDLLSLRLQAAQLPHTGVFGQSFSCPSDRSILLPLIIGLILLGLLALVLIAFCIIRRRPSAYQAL
substance,measurement,value
Y1/82A anti-CD68 monoclonal antibody,percent of B cells co-stained for CD68 and ARID3a,29%

# — patent US20260035476A1
